# Experimental data taken from US11278600B2, “Human alpha-galactosidase variants” (Codexis, Inc., priority 2014, dated 2022).
# Changes are numbered by the printed parent chain.
# B1: 457 (protein)
# chain: LDNGLARTPTMGWLHWERFMCNLDCQEEPDSCISEKLFMEMAERMVSEGWKDAGYEYLCIDDCWMAPQRDSEGRLQADPQRFPHGIRQLANYVHSKGLKLGIYADVGNKTCAGFPGSFGYYDIDAQTFADWGVDLLKFDGCYCDSLENLADGYKHMSLALNRTGRSIVYSCEWPLYMWPFQKPNYTEIRQYCNHWRNFADIDDSWKSIKSILDWTSRNQERIVDVAGPGGWNDPDMLVIGNFGLSWDQQVTQMALWAIMAAPLFMSNDLRHISPQAKALLQDKDVIAINQDPLGKQGYQLRKGDNFEVWERPLSGDAWAVAIINRQEIGGPRSYTIPVASLGKGVACNPACFITQLLPVKRQLGFYNWTSRLKSHINPTGTVLLQLENTMQASLKDLL
# modifications: Synthetic Polypeptide sequence of Variant No. 457 of mature Human GLA
# B2: 462 (protein)
# chain: B1 chain with Q385L, A392M
# modifications: Synthetic Polypeptide sequence of Variant No. 462 of mature Human GLA
# B3: 461 (protein)
# chain: B1 chain with A392Q
# modifications: Synthetic Polypeptide sequence of Variant No. 461 of mature Human GLA
# B4: 367 (protein)
# chain: B1 chain with M39R, A392M
# modifications: Synthetic Polypeptide sequence of Variant No. 367 of mature Human GLA
# B5: 460 (protein)
# chain: B1 chain with L386T, A392M
# modifications: Synthetic Polypeptide sequence of Variant No. 460 of mature Human GLA
# B6: 459 (protein)
# chain: B1 chain with M390H, A392M
# modifications: Synthetic Polypeptide sequence of Variant No. 459 of mature Human GLA
# Assay: HTP-analysis of yeast culture supernatants, no challenge (MUGal hydrolysis)
# Assay type: biochemical
# Details: activity of the variant/activity of Rd4BB (SEQ ID NO: 15)
# In short: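 GLA variants expressed in yeast INVSc1, secreted into SD-Ura broth over 66-84 h at 30° C; clarified supernatants tested without challenge. Supernatant mixed with McIlvaine buffer pH 4.8 and 2 mM MUGal (citrate/KCl, pH 4.6), 37° C for 30-180 min, carbonate-quenched, fluorescence Ex 355/Em 448 nm.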
row,Molecule,Relative Activity of GLA Variants After No Challenge (NC)
1,B1,+ (0.5 to 1.5 relative activity over Rd4BB (SEQ ID NO: 15))
2,B2,+ (0.5 to 1.5 relative activity over Rd4BB (SEQ ID NO: 15))
3,B3,+ (0.5 to 1.5 relative activity over Rd4BB (SEQ ID NO: 15))
4,B4,+ (0.5 to 1.5 relative activity over Rd4BB (SEQ ID NO: 15))
5,B5,+ (0.5 to 1.5 relative activity over Rd4BB (SEQ ID NO: 15))
6,B6,+ (0.5 to 1.5 relative activity over Rd4BB (SEQ ID NO: 15))

# Assay: HTP-analysis of supernatants pretreated with base (MUGal hydrolysis)
# Assay type: biochemical
# Details: activity of the variant/activity of Rd4BB (SEQ ID NO: 15); challenge at pH 9.65
# In short: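 Fluorescence of released 4-MU (Ex 355 nm, Em 448 nm) after carbonate quench reports MUGal hydrolysis by GLA variants secreted from INVSc1 yeast. Before the acidic (pH 4.3-4.8) 30-180 min reaction at 37° C, supernatants had been pre-incubated at pH 7.0-9.7 for 1-18 h at 37° C.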
row,Molecule,Relative Activity of GLA Variants After Challenge at pH 9.65
1,B1,+ (0.5 to 1.5 relative activity over Rd4BB (SEQ ID NO: 15))
2,B2,+ (0.5 to 1.5 relative activity over Rd4BB (SEQ ID NO: 15))
3,B3,+ (0.5 to 1.5 relative activity over Rd4BB (SEQ ID NO: 15))
4,B4,− (<0.5 relative activity over Rd4BB (SEQ ID NO: 15))
5,B5,+ (0.5 to 1.5 relative activity over Rd4BB (SEQ ID NO: 15))
6,B6,+ (0.5 to 1.5 relative activity over Rd4BB (SEQ ID NO: 15))

# Assay: HTP-analysis of supernatants pretreated with acid (MUGal hydrolysis)
# Assay type: biochemical
# Details: activity of the variant/activity of Rd4BB (SEQ ID NO: 15); challenge at pH 3.7
# In short: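 Fluorescence of MUGal hydrolysis (Ex. 355 nm, Em. 448 nm) is read after sodium carbonate quench. The enzyme source is INVSc1 yeast culture supernatant, first exposed to pH 3.3-4.3 McIlvaine buffer at 37° C. for 1-3 h, then reacted at pH 4.8 for 30-180 minutes.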
row,Molecule,Relative Activity of GLA Variants After Challenge at pH 3.7
1,B1,+ (0.5 to 1.5 relative activity over Rd4BB (SEQ ID NO: 15))
2,B2,+ (0.5 to 1.5 relative activity over Rd4BB (SEQ ID NO: 15))
3,B3,+ (0.5 to 1.5 relative activity over Rd4BB (SEQ ID NO: 15))
4,B4,+ (0.5 to 1.5 relative activity over Rd4BB (SEQ ID NO: 15))
5,B5,+ (0.5 to 1.5 relative activity over Rd4BB (SEQ ID NO: 15))
6,B6,++ (>1.5 to 2.5 relative activity over Rd4BB (SEQ ID NO: 15))
